Reference: the MegaScale stability set (Tsuboyama et al. 2023)

B1: r4_43_TrROS_Hall (parent)
chain: DLVTIKVPLENLEEIKKAAEKAGFKIVSISYDKENKEVTIVIEKKK

Variants of: B1
Assay: folding stability dG (cDNA display proteolysis); higher = more stable
Conditions: PBS, room temperature

First: DLVTIKVPLENLEEIKAAAEKAGFKIVSISYDKENKEVTIVIEKKK [K17A]
Second: DLVTIKVPLENLEGIKKAAEKAGFKIVSISYDKENKEVTIVIEKKK [E14G]
The “folding stability dG” value of the first is lower: 3.56 kcal/mol for the first, 3.86 kcal/mol for the second.

First: DLVTIKVPLENLECIKKAAEKAGFKIVSISYDKENKEVTIVIEKKK [E14C]
Second: DLVTIKVPLENLEIIKKAAEKAGFKIVSISYDKENKEVTIVIEKKK [E14I]
The “folding stability dG” value of the first is higher: 4.03 kcal/mol for the first, 3.71 kcal/mol for the second.

Compared with DLVTIKVPLENLENIKKAAEKAGFKIVSISYDKENKEVTIVIEKKK [E14N], DLVTIKVPLENLEPIKKAAEKAGFKIVSISYDKENKEVTIVIEKKK [E14P] is higher in “folding stability dG” value: 3.83 kcal/mol for the first, 3.95 kcal/mol for the second.

Compared with DLVTIKVPLENLEYIKKAAEKAGFKIVSISYDKENKEVTIVIEKKK [E14Y], DLVTIKVPLENLEMIKKAAEKAGFKIVSISYDKENKEVTIVIEKKK [E14M] is higher in “folding stability dG” value: 3.75 kcal/mol for the first, 3.89 kcal/mol for the second.

Going from DLVTIKVPLENLELIKKAAEKAGFKIVSISYDKENKEVTIVIEKKK [E14L] to DLVTIKVPLENLEDIKKAAEKAGFKIVSISYDKENKEVTIVIEKKK [E14D], the “folding stability dG” value rises from 3.53 kcal/mol to 3.68 kcal/mol.

Going from DLVTIKVPLENLEHIKKAAEKAGFKIVSISYDKENKEVTIVIEKKK [E14H] to DLVTIKVPLENLETIKKAAEKAGFKIVSISYDKENKEVTIVIEKKK [E14T], the “folding stability dG” value falls from 4.06 kcal/mol to 3.76 kcal/mol.

Compared with DLVTIKVPLENLEVIKKAAEKAGFKIVSISYDKENKEVTIVIEKKK [E14V], DLVTIKVPLENLEKIKKAAEKAGFKIVSISYDKENKEVTIVIEKKK [E14K] is lower in “folding stability dG” value: 3.71 kcal/mol for the first, 3.43 kcal/mol for the second.

Compared with DLVTIKVPLENLEWIKKAAEKAGFKIVSISYDKENKEVTIVIEKKK [E14W], DLVTIKVPLENLEFIKKAAEKAGFKIVSISYDKENKEVTIVIEKKK [E14F] is higher in “folding stability dG” value: 3.86 kcal/mol for the first, 3.99 kcal/mol for the second.

DLVTIKVPLENLEAIKKAAEKAGFKIVSISYDKENKEVTIVIEKKK [E14A] and DLVTIKVPLENLERIKKAAEKAGFKIVSISYDKENKEVTIVIEKKK [E14R] are the same in “folding stability dG” value: 3.78 kcal/mol for the first, 3.78 kcal/mol for the second.

Going from DLVTIKVPLENLESIKKAAEKAGFKIVSISYDKENKEVTIVIEKKK [E14S] to DLVTIKVPLENLEQIKKAAEKAGFKIVSISYDKENKEVTIVIEKKK [E14Q], the “folding stability dG” value falls from 3.7 kcal/mol to 3.56 kcal/mol.

Compared with DLVTIKVPLENREEIKKAAEKAGFKIVSISYDKENKEVTIVIEKKK [L12R], DLVTIKVPLENGEEIKKAAEKAGFKIVSISYDKENKEVTIVIEKKK [L12G] is higher in “folding stability dG” value: 2.8 kcal/mol for the first, 3.16 kcal/mol for the second.

Compared with DLVTIKVPLENVEEIKKAAEKAGFKIVSISYDKENKEVTIVIEKKK [L12V], DLVTIKVPLENFEEIKKAAEKAGFKIVSISYDKENKEVTIVIEKKK [L12F] is higher in “folding stability dG” value: 3.56 kcal/mol for the first, 3.75 kcal/mol for the second.

First: DLVTIKVPLENHEEIKKAAEKAGFKIVSISYDKENKEVTIVIEKKK [L12H]
Second: DLVTIKVPLENWEEIKKAAEKAGFKIVSISYDKENKEVTIVIEKKK [L12W]
The “folding stability dG” value of the first is lower: 3.41 kcal/mol for the first, 3.67 kcal/mol for the second.

Going from DLVTIKVPLENSEEIKKAAEKAGFKIVSISYDKENKEVTIVIEKKK [L12S] to DLVTIKVPLENQEEIKKAAEKAGFKIVSISYDKENKEVTIVIEKKK [L12Q], the “folding stability dG” value falls from 3.38 kcal/mol to 3.25 kcal/mol.

Compared with DLVTIKVPLENDEEIKKAAEKAGFKIVSISYDKENKEVTIVIEKKK [L12D], DLVTIKVPLENIEEIKKAAEKAGFKIVSISYDKENKEVTIVIEKKK [L12I] is higher in “folding stability dG” value: 2.46 kcal/mol for the first, 3.73 kcal/mol for the second.

Compared with DLVTIKVPLENMEEIKKAAEKAGFKIVSISYDKENKEVTIVIEKKK [L12M], DLVTIKVPLENEEEIKKAAEKAGFKIVSISYDKENKEVTIVIEKKK [L12E] is lower in “folding stability dG” value: 3.77 kcal/mol for the first, 3.55 kcal/mol for the second.

Compared with DLVTIKVPLENKEEIKKAAEKAGFKIVSISYDKENKEVTIVIEKKK [L12K], DLVTIKVPLENAEEIKKAAEKAGFKIVSISYDKENKEVTIVIEKKK [L12A] is higher in “folding stability dG” value: 3.03 kcal/mol for the first, 3.63 kcal/mol for the second.

Going from DLVTIKVPLENPEEIKKAAEKAGFKIVSISYDKENKEVTIVIEKKK [L12P] to DLVTIKVPLENTEEIKKAAEKAGFKIVSISYDKENKEVTIVIEKKK [L12T], the “folding stability dG” value rises from 1.92 kcal/mol to 3.23 kcal/mol.

Compared with DLVTIKVPLENYEEIKKAAEKAGFKIVSISYDKENKEVTIVIEKKK [L12Y], DLVTIKVPLENNEEIKKAAEKAGFKIVSISYDKENKEVTIVIEKKK [L12N] is lower in “folding stability dG” value: 3.64 kcal/mol for the first, 2.46 kcal/mol for the second.

Going from DLVTIKVPLENLEEIIKAAEKAGFKIVSISYDKENKEVTIVIEKKK [K16I] to DLVTIKVPLENLEEITKAAEKAGFKIVSISYDKENKEVTIVIEKKK [K16T], the “folding stability dG” value falls from 3.9 kcal/mol to 3.88 kcal/mol.

Compared with DLVTIKVPLENLEEIEKAAEKAGFKIVSISYDKENKEVTIVIEKKK [K16E], DLVTIKVPLENLEEIAKAAEKAGFKIVSISYDKENKEVTIVIEKKK [K16A] is higher in “folding stability dG” value: 3.29 kcal/mol for the first, 3.75 kcal/mol for the second.

Compared with DLVTIKVPLENLEEIVKAAEKAGFKIVSISYDKENKEVTIVIEKKK [K16V], DLVTIKVPLENLEEIFKAAEKAGFKIVSISYDKENKEVTIVIEKKK [K16F] is higher in “folding stability dG” value: 3.6 kcal/mol for the first, 3.62 kcal/mol for the second.

Going from DLVTIKVPLENLEEIQKAAEKAGFKIVSISYDKENKEVTIVIEKKK [K16Q] to DLVTIKVPLENLEEILKAAEKAGFKIVSISYDKENKEVTIVIEKKK [K16L], the “folding stability dG” value rises from 3.57 kcal/mol to 3.61 kcal/mol.

Compared with DLVTIKVPLENLEEIPKAAEKAGFKIVSISYDKENKEVTIVIEKKK [K16P], DLVTIKVPLENLEEIDKAAEKAGFKIVSISYDKENKEVTIVIEKKK [K16D] is higher in “folding stability dG” value: 1.97 kcal/mol for the first, 2.66 kcal/mol for the second.

First: DLVTIKVPLENLEEISKAAEKAGFKIVSISYDKENKEVTIVIEKKK [K16S]
Second: DLVTIKVPLENLEEICKAAEKAGFKIVSISYDKENKEVTIVIEKKK [K16C]
The “folding stability dG” value of the first is higher: 3.58 kcal/mol for the first, 3.47 kcal/mol for the second.

First: DLVTIKVPLENLEEIGKAAEKAGFKIVSISYDKENKEVTIVIEKKK [K16G]
Second: DLVTIKVPLENLEEIWKAAEKAGFKIVSISYDKENKEVTIVIEKKK [K16W]
The “folding stability dG” value of the first is lower: 3.4 kcal/mol for the first, 3.8 kcal/mol for the second.

First: DLVTIKVPLENLEEIMKAAEKAGFKIVSISYDKENKEVTIVIEKKK [K16M]
Second: DLVTIKVPLENLEEIHKAAEKAGFKIVSISYDKENKEVTIVIEKKK [K16H]
The “folding stability dG” value of the first is higher: 3.58 kcal/mol for the first, 3.29 kcal/mol for the second.

Going from DLVTIKVPLENLEEIYKAAEKAGFKIVSISYDKENKEVTIVIEKKK [K16Y] to DLVTIKVPLENLEEINKAAEKAGFKIVSISYDKENKEVTIVIEKKK [K16N], the “folding stability dG” value falls from 4.02 kcal/mol to 3.35 kcal/mol.
